From article PMC5500810, “Identification and characterization of Nanobodies targeting the EphA4 receptor” (The Journal of Biological Chemistry, 2017)

Legend:
Settings in all cases: both partners purified
[1] = molecular target: T1, mouse recombinant EphA3 (Fc-tagged; R&D Systems) (mouse, UniProt P29319); experiment: AlphaScreen or HTRF; biotinylated Nbs (100 nM) with subhooking concentrations (10-100 nM) of mouse Fc-tagged Eph receptors; anti-IgG AlphaLISA acceptor and streptavidin donor beads; 50 mM Hepes, 100 mM NaCl, 0.1% Triton, 0.1% BSA; room temperature
T1 construct: EphA3, mouse, recombinant, Fc-tagged; source: bought: R&D Systems
T1 sequence (P29319 21-540): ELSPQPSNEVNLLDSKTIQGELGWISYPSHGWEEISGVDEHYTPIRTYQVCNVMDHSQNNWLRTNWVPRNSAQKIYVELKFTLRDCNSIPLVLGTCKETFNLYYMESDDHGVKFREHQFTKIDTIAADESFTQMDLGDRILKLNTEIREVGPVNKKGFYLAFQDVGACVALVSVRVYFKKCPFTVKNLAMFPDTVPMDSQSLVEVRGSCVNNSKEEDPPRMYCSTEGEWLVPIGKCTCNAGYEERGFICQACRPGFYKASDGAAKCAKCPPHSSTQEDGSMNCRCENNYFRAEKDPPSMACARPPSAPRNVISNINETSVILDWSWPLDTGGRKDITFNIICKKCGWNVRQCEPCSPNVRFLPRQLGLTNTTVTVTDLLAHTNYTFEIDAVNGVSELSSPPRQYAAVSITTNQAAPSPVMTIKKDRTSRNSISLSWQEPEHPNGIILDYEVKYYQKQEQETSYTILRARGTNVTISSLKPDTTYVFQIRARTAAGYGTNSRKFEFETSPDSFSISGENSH

[2] = molecular target: T2, mouse recombinant EphA7 (Fc-tagged; R&D Systems) (mouse, UniProt Q61772); experiment: as above
T2 construct: EphA7, mouse, recombinant, Fc-tagged; source: bought: R&D Systems
T2 sequence (Q61772 28-555): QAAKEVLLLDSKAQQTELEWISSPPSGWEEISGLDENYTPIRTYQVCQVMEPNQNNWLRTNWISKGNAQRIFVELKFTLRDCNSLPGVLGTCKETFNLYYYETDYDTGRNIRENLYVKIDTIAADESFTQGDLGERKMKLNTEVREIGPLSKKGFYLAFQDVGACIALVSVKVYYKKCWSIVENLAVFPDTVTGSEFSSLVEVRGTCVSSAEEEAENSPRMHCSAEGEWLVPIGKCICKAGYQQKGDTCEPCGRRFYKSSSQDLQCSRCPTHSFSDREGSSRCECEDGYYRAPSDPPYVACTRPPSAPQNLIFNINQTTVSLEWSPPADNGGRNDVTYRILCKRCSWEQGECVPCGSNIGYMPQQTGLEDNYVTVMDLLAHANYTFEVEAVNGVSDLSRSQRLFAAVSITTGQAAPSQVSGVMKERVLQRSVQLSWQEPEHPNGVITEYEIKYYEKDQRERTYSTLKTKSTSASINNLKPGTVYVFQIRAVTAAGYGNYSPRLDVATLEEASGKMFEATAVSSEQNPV

[3] = molecular target: T3, mouse recombinant EphA8 (Fc-tagged; R&D Systems) (mouse, UniProt O09127); experiment: as above
T3 construct: EphA8, mouse, recombinant, Fc-tagged; source: bought: R&D Systems
T3 sequence (O09127 27-541): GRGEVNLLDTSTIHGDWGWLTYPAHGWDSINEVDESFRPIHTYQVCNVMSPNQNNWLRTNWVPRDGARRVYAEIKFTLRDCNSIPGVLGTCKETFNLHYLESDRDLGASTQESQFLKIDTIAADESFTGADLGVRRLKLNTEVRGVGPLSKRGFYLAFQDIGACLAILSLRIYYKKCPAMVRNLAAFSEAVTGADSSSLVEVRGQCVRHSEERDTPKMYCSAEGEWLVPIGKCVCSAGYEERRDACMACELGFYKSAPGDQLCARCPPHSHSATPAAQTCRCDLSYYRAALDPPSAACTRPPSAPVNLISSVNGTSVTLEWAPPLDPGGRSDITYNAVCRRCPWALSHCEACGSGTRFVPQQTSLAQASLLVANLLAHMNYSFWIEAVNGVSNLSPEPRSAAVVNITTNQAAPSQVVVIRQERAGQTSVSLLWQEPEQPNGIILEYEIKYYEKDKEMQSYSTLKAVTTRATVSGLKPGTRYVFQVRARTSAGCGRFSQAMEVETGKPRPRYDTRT

[4] = molecular target: T4, mouse recombinant EphA6 (Fc-tagged; R&D Systems) (mouse, UniProt Q62413); experiment: as above
T4 construct: EphA6, mouse, recombinant, Fc-tagged; source: bought: R&D Systems
T4 sequence (Q62413 23-549): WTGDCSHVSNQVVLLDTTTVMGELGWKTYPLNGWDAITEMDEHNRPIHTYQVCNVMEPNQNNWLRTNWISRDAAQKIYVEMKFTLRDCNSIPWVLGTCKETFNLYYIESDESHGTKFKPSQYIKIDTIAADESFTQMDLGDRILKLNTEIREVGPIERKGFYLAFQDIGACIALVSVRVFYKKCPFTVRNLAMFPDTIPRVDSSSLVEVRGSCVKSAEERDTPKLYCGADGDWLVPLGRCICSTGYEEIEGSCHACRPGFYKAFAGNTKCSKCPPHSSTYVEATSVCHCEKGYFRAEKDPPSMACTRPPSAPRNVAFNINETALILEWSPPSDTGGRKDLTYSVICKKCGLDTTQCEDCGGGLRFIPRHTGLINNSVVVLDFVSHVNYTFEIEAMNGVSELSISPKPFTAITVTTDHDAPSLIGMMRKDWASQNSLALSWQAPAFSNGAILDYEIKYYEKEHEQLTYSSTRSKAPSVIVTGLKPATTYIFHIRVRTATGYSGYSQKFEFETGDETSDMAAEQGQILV

[5] = molecular target: T5, mouse EphA4-Fc (R&D Systems) (mouse, UniProt Q03137); experiment: co-IP; Nb on anti-HA magnetic Dynabeads used to capture recombinant EphA4; EphA4 detected with N-terminal anti-EphA4 antibody
T5 construct: EphA4, mouse; the results call it 'full-length recombinant' receptor, the methods an EphA4-hFc fusion protein from R&D Systems; also called mEphA4-Fc; EphA4-hFc (mouse); source: bought: R&D Systems
T5 sequence (Q03137 20-547): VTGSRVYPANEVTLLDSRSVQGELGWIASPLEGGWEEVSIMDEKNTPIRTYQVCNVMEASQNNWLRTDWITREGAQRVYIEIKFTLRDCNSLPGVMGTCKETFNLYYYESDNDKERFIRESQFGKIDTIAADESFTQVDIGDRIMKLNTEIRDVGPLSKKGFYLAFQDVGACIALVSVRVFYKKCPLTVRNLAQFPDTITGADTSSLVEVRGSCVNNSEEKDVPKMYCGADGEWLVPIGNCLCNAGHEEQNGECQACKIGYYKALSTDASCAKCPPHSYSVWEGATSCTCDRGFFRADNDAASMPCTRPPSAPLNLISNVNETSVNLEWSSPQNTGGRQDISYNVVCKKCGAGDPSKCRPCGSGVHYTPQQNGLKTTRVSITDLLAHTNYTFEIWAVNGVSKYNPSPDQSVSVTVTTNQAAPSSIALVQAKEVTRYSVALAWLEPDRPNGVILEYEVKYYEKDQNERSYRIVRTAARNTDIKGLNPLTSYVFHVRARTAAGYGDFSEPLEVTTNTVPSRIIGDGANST

[6] = molecular target: T6, human EphA4-Fc (R&D Systems) (Homo sapiens, UniProt P54764); experiment: as above
T6 construct: EphA4, human; the results call it 'full-length recombinant' receptor, the methods an EphA4-hFc fusion protein from R&D Systems; also called hEphA4-Fc; EphA4-hFc; source: bought: R&D Systems
T6 sequence (P54764 20-547): as the sequence (Q03137 20-547) above, with A59P, S121N, G124V, Q250R, N251S, S270T, R378K, S406N counted along it

[7] = molecular target: T7, EphA4 ligand-binding domain (human, amino acids 22-203) (human, UniProt P54764, biotin on primary amines (EZ link NHS biotin) in the AlphaScreen assays only); experiment: SPR; Biacore T200; EphA4 LBD amine-coupled to CM5 chip (300 RU); Nbs (1-300 nM) as analyte, 60 μl/min; 10 mM Hepes, 150 mM NaCl, 3 mM EDTA, 0.01 mM Surfactant P-20, pH 7.35; two-state model
T7 construct: cloned from the EphA4 Human cDNA ORF clone (Origene); His6 tag removed with murine caspase-3; Amine-coupled to the chip in SPR; biotinylated in AlphaScreen; also called EphA4 LBD; hEphA4 LBD; source: E. coli BL21 codon+ pICA2, purified (Ni-Sepharose, Source 15Q, Superdex 75); not shown: His6, N-terminal, cleaved
T7 sequence (P54764 22-203): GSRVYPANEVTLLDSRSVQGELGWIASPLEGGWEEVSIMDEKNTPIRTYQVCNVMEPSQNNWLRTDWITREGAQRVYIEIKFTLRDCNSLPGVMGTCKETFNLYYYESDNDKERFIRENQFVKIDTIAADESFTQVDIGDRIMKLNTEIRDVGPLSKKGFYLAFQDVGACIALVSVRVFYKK

Measured: binding result

B1: Nb 50 (VHH)
VHH: QVQLQESGGGLVQAGGSLRLSCAASGRTFNSYAEAWFRQAPGKEREMIAAVTKAGTTNYANPVKGRFTISRDDAKNMVYLQMNNLKPEDSAVYYCNAISPLWDEYDFWGPGTQVTVSS
notes: Cloned in the phagemid pMECS; Same clonal group as Nb 31, 10 and 53; also called Nanobody 50; source: E. coli WK6, periplasmic extract, purified (His GraviTrap, Sephadex G25)
binds: all assays above
